# Test system: human plasminogen
# Sequence (chain, as listed by the source): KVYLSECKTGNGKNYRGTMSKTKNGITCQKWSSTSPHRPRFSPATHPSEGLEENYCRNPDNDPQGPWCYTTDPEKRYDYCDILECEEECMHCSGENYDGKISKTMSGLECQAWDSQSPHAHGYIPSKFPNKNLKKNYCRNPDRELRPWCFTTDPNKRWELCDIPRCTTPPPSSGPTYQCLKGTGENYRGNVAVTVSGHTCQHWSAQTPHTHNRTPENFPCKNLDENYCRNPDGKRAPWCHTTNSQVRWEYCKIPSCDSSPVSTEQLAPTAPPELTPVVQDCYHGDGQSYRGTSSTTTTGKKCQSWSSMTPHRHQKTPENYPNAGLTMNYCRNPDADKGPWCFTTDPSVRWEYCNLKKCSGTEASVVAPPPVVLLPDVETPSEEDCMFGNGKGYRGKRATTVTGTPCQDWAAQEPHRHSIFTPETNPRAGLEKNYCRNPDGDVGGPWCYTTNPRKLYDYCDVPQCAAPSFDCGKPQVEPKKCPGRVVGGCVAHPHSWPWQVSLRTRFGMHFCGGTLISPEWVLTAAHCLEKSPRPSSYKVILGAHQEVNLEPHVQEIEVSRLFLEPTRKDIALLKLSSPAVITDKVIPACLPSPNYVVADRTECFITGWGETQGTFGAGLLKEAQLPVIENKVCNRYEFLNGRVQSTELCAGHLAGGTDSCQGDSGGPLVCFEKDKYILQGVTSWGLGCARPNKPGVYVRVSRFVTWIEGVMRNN
Substance,conversion of plasminogen to plasmin (Coomassie-stained reduced polyacrylamide gels),production of angiostatin (western blot)
urokinase-type plasminogen activator (u-PA),The complete conversion of plasminogen to plasmin was confirmed,"incubation of plasminogen (0.2 µM) with u-PA (0.2 nM), t-PA (1.0 nM), or streptokinase (8.0 nM) with 100 µM N-acetyl-L-cysteine resulted in the production of angiostatin"
tissue-type plasminogen activator (t-PA),–,"incubation of plasminogen (0.2 µM) with u-PA (0.2 nM), t-PA (1.0 nM), or streptokinase (8.0 nM) with 100 µM N-acetyl-L-cysteine resulted in the production of angiostatin"
